± gives the standard deviation.
Experiment: protein stability index of a GFP-peptide fusion (GPS, HEK-293T) (PSI 1-6); higher = more stable
[1] = treatment: DMSO, c terminus: a fixed tail appended
[2] = treatment: MLN4924 1 uM, 8 h, c terminus: a fixed tail appended
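Also: 24-mer peptide tiles fused after GFP, lentivirally expressed, FACS-sorted into six equal bins by GFP/DsRed ratio, decoded by Illumina sequencing, PSI is the read-weighted mean bin number.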

EQLREALHEALLEYEAGRAGPGGG [ESRRA]
protein stability index [1]: 3.92 ± 0.27 | protein stability index [2]: 4.05 ± 0.39

VISKKAKVKVPQKTAGKENHFDMH [ZNF75A]
protein stability index [1]: 3.08 ± 0.24 | protein stability index [2]: 3.06 ± 0.26

SQCQMETKPLAIHPCGDKNCPAHW [ADAMTSL2]
protein stability index [1]: 3.91 ± 0.62 | protein stability index [2]: 4.53 ± 0.31

VEQPQPQFISRFLEGQSGVTIKHV [NEK8]
protein stability index [1]: 3.27 ± 0.18 | protein stability index [2]: 3.29 ± 0.17

PWLWSEQQVCQWLLWATNEFSLVN [ETS2]
protein stability index [1]: 2.76 ± 0.47 | protein stability index [2]: 2.42 ± 0.46

KVVHAVDGTAENGIHPLSSSEVDE [PALM]
protein stability index [1]: 5.25 ± 0.11 | protein stability index [2]: 5.47 ± 0.19

FQILLLSDPSTIEASNFQMDRKTR [PNLIPRP1]
protein stability index [1]: 2.03 ± 0.43 | protein stability index [2]: 2.42 ± 0.28

SLLSLPVWVLMDEDVRIFFYQSPY [NCF4]
protein stability index [1]: 2.56 ± 0.24 | protein stability index [2]: 2.66 ± 0.47

CGRKLAKDGEYCWRWTGFNFGFDL [GMCL1]
protein stability index [1]: 2.72 ± 0.54 | protein stability index [2]: 2.71 ± 0.91

FLPLNSAQTLHHKSCYNGRFQLLY [DNAAF3]
protein stability index [1]: 2.54 ± 0.32 | protein stability index [2]: 2.38 ± 0.36

ALSGVGGIRLPNGKLKCDICGIIC [IKZF1]
protein stability index [1]: 1.96 ± 0.26 | protein stability index [2]: 2.1 ± 0.34

NGTEDLPYAMKPIDYYTETKILQE [NSDHL]
protein stability index [1]: 4.28 ± 0.17 | protein stability index [2]: 4.22 ± 0.051

RQDLEDRYAEHVAATQALPQDSGT [C22orf31]
protein stability index [1]: 5.4 ± 0.17 | protein stability index [2]: 5.46 ± 0.3

AWHCSESGQRLGGYRTSAVASGLQ [WDFY2]
protein stability index [1]: 2.84 ± 0.14 | protein stability index [2]: 3.1 ± 0.16

ERLAKNLVEKGVLTTEKQNFLLFD [GOLPH3]
protein stability index [1]: 3.16 ± 0.52 | protein stability index [2]: 3.43 ± 0.34

RVAHEPVAPPEDKESESEAKVDGE [CDS2]
protein stability index [1]: 5.47 ± 0.21 | protein stability index [2]: 5.63 ± 0.27

LVQLRNMVQQIQENSVEFEACLVA [TRIM9]
protein stability index [1]: 2.25 ± 0.1 | protein stability index [2]: 2.54 ± 0.37

GRLSMAAADIVNFLTVGSVLQMWH [ZBTB22]
protein stability index [1]: 3.33 ± 0.17 | protein stability index [2]: 3.4 ± 0.48

RQGPKEPPRKSGSFHSSGEKQKQP [PBXIP1]
protein stability index [1]: 4.86 ± 0.27 | protein stability index [2]: 5.17 ± 0.15

STRGAARPAQAIGTQPRATKHKCR [SPACA9]
protein stability index [1]: 5.13 ± 0.098 | protein stability index [2]: 5.14 ± 0.36

PEQLVLTLLEAEPPHVLISRPSAP [ESR2]
protein stability index [1]: 2.89 ± 0.31 | protein stability index [2]: 3.1 ± 0.48

TDDPTAGRSNAPITAPTEVEVMDE [CSNK1G3]
protein stability index [1]: 5.67 ± 0.13 | protein stability index [2]: 5.51 ± 0.22

IRKLVAEKLNIPWNHIRLQRTAKG [AASDHPPT]
protein stability index [1]: 2.31 ± 0.27 | protein stability index [2]: 2.44 ± 0.33

MKLFLDCLKEFPEKQELHRNMLGL [ZER1]
protein stability index [1]: 2.35 ± 0.11 | protein stability index [2]: 2.4 ± 0.35

VKEKFSPEAFTEQLYRYVTKLLV [ALG2]
protein stability index (treatment: DMSO, c terminus: native): 3.38 ± 0.3 | protein stability index (treatment: MLN4924 1 uM, 8 h, c terminus: native): 3.16 ± 0.16

EELTREAVAVDVAVPKRLLEIVGR [HAGHL]
protein stability index [1]: 3.85 ± 0.17 | protein stability index [2]: 3.91 ± 0.38

WYQPSFHGVDLSALRGAAVDEYFR [CARM1]
protein stability index [1]: 2.71 ± 0.18 | protein stability index [2]: 2.75 ± 0.34

PGLLEEDNQWMTQINRLQKLIDRL [NECAB1]
protein stability index [1]: 2.51 ± 0.23 | protein stability index [2]: 2.88 ± 0.2

VGAAETTLTELRRTVQSLEIDLDS [KRT18]
protein stability index [1]: 4.51 ± 0.19 | protein stability index [2]: 4.86 ± 0.24

SPSVPCIFCEEHFPVAEQDKLLKH [ZNF277]
protein stability index [1]: 4.16 ± 0.24 | protein stability index [2]: 4.37 ± 0.084

RNNANGVDLNRNFPDLNTYIYYNE [CPN1]
protein stability index [1]: 3.17 ± 0.26 | protein stability index [2]: 3.14 ± 0.28

QARTQKLQGLIPGARYEVTVVSVR [TNXB]
protein stability index [2]: 2.22 ± 0.42

LEQRSESVRRTRSKIGFGILLSKE [SMAD6]
protein stability index [1]: 3.51 ± 0.27 | protein stability index [2]: 3.5 ± 0.3

SVHFDGETIEGAPPLWAASAAGHL [FEM1A]
protein stability index [1]: 3.42 ± 0.07 | protein stability index [2]: 3.47 ± 0.5

IQELELQAQIHGLPVPPTPGLLSL [TFE3]
protein stability index [1]: 2.62 ± 0.22 | protein stability index [2]: 2.56 ± 0.28

APDEKRSNVRWDHESVCKYYLCGF [LUC7L3]
protein stability index [1]: 2.34 ± 0.28 | protein stability index [2]: 2.41 ± 0.24

DTGLFSRSKSGSEEVLCDSCIGNK [TRIM29]
protein stability index [1]: 4.61 ± 0.1 | protein stability index [2]: 4.92 ± 0.23

LGRFNDINVPIRLECVKFASHCLM [PDS5B]
protein stability index [1]: 2.83 ± 1.6 | protein stability index [2]: 2.41 ± 0.94

GAAESPYSHLGGIDYKTTTILLDG [RAB40A]
protein stability index [1]: 3.61 ± 0.4 | protein stability index [2]: 3.57 ± 0.17

FSDSSMDHFQKFLPTVGGQLGTAG [MYOZ1]
protein stability index [1]: 2.78 ± 0.31 | protein stability index [2]: 3.23 ± 0.34

LGTAIFIEADRRRAQLHVQGLLHE [SPNS1]
protein stability index [1]: 2.46 ± 0.36 | protein stability index [2]: 2.17 ± 0.31

ASWYSLSKGMQDFNYLHTNCFEIT [CPN1]
protein stability index [1]: 2.56 ± 0.58 | protein stability index [2]: 2.23 ± 0.4

AEGSPGGPGDSQGRKRRQTSMTDF [CDKN1A]
protein stability index [1]: 5.23 ± 0.1 | protein stability index [2]: 5.13 ± 0.22

GEEQSQYMHVGSCQHLSSSAEELR [KCNA3]
protein stability index [1]: 4.83 ± 0.25 | protein stability index [2]: 4.52 ± 0.2

LGPSPQRDPQAVKERALSAPWLSL [ZNF263]
protein stability index [1]: 2.72 ± 0.14 | protein stability index [2]: 2.77 ± 0.29

EEKKAKVAPPAKQAQQKKAPAKKA [BRD3]
protein stability index [1]: 5.45 ± 0.29 | protein stability index [2]: 5.49 ± 0.17

LLEDPLCADVILVLQERVRIFAHK [RHOBTB2]
protein stability index [1]: 2.21 ± 0.21 | protein stability index [2]: 2.5 ± 0.25

PYQCSQCSKSYSRRSFLIEHQRSH [ZSCAN9]
protein stability index [1]: 4.3 ± 0.2 | protein stability index [2]: 4.45 ± 0.43

GRWVNENCRLQSPYFSPSASFHHK [CBY2]
protein stability index [1]: 2.89 ± 0.19 | protein stability index [2]: 2.86 ± 0.31

SGVVRIWDLRDQSVVRDLKGYPDG [TLE6]
protein stability index [1]: 3.3 ± 0.31 | protein stability index [2]: 3.42 ± 0.23

MSADPHLASSLSPSQDERMRSPQN [NOL4L]
protein stability index [1]: 5.17 ± 0.25 | protein stability index [2]: 5.15 ± 0.24

ENPDLQEAYIAKQKRLKSKLLDHD [GDAP1]
protein stability index [1]: 4.53 ± 0.11 | protein stability index [2]: 4.67 ± 0.15

GGGGSRSISASSARFVSSGSGGGY [KRT15]
protein stability index [1]: 4.23 ± 0.29 | protein stability index [2]: 4.13 ± 0.3

TIILQQLLPLRTKVAKLLGYSTHA [NLN]
protein stability index [1]: 2.33 ± 0.26 | protein stability index [2]: 1.92 ± 0.39

QKSPWCEARSLEHTLPVNRETLKR [ESR2]
protein stability index [1]: 4.23 ± 0.16 | protein stability index [2]: 4.41 ± 0.21

MFFKDRFYMRTNPFYPEVELNFIS [MMP1]
protein stability index [1]: 2.44 ± 0.73 | protein stability index [2]: 2.71 ± 0.68

LASYPLALVRTRMQAQASIEGAPE [SLC25A25]
protein stability index [1]: 4.03 ± 0.19 | protein stability index [2]: 4.18 ± 0.43

CFVEFHEHRHAAAALAAMNGRKIM [TIA1]
protein stability index [1]: 2.71 ± 0.14 | protein stability index [2]: 2.81 ± 0.17

GNPFLDVPQALSATTYKHGVLTRK [PSD2]
protein stability index [1]: 4.08 ± 0.3 | protein stability index [2]: 4.18 ± 0.4

AAAQAPENFQEGKDMSESQDEVPD [TAF7L]
protein stability index [1]: 5.62 ± 0.24 | protein stability index [2]: 5.58 ± 0.23

LVPDASKQRLMENTEDWRPRPGTG [PDLIM7]
protein stability index [1]: 4.47 ± 0.2 | protein stability index [2]: 4.53 ± 0.32

LFPPKAKSNQPKSLEDLIFESLPE [ATE1]
protein stability index [1]: 3 ± 0.055 | protein stability index [2]: 3.66 ± 0.59

IAELLEVFDLRMMVANILNNEAFM [RHOBTB2]
protein stability index [1]: 3.36 ± 0.2 | protein stability index [2]: 2.98 ± 0.55

NVYHSYDLPWFRTLSWYFLLCVNY [CDS2]
protein stability index [1]: 2.93 ± 0.23 | protein stability index [2]: 2.98 ± 0.28

LAALSATISFRIYKSVLQAVQKTD [RTN1]
protein stability index [1]: 2.53 ± 0.76 | protein stability index [2]: 2.28 ± 0.54

Reference: the supplement of paper PMC10567573
